How the values were obtained:
[1] = molecular target: T1, SARS-CoV-2 spike receptor-binding domain (RBD) (SARS-CoV-2, UniProt P0DTC2, biotin (biotinylated RBD in the BLI experiments only)); assay: bead-based multiplex ACE2 competition assay
[2] = molecular target: T1, SARS-CoV-2 spike receptor-binding …; assay: BLI

B1: nanobody NM1230 (VHH)
VHH: QVQLVESGGGLVRPGGSLRLSCVGSGFTFSGYAMNWYRQAPGKALELVAGISNAGDLTHYEEPMKGRVAISRANDKNTVYLQMDDLKPEDTAVYRCHAPGVRVGTGERKDVWGQGAQVTVSS
B1 was tested, and the IC50 [1] was 2.12 nM and the Kd [2] was 8.23 nM.

— paper doi:10.1101/2020.09.22.308338 (bioRxiv, 2020)
